Test results published in patent US8716557B2.

Legend:
[1] = target: CD30 expressed on L540 cells (Homo sapiens (Human)) (UniProt P28908)
[2] = target: FcγRIIIa Phe/Phe^158 on human effector cells (human) (UniProt P08637)
[3] = target: CD30 expressed on L540 cells (Homo sapiens (Human)) (UniProt P28908); assay: flow cytometry on CD30-expressing L540 cells, FITC-labeled goat anti-human secondary

Chain of UniProt P28908 (P28908 19-595 limits assumed): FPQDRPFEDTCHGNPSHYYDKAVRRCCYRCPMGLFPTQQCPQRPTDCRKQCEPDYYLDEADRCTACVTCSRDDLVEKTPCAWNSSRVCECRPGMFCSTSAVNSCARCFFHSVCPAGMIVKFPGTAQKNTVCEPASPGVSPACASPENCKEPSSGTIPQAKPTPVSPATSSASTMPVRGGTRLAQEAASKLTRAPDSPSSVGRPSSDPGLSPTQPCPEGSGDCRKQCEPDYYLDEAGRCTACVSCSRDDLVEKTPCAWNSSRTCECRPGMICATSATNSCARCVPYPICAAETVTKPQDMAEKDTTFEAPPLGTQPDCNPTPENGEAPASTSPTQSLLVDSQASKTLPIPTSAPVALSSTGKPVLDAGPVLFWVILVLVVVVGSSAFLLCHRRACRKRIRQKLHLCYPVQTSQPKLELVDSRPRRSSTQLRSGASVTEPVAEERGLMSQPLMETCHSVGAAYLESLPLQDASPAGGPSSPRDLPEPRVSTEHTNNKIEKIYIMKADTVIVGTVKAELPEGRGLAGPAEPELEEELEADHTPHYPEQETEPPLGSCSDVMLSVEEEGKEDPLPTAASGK

ADCC, maximal percent cell lysis (heterozygous FcγRIIIa Phe/Val^158 effector cells) [1] [%] | ADCC, maximal percent cell lysis (homozygous FcγRIIIa Phe/Phe^158 effector cells) [2] [%] | EC50 [3] [µg/mL] | ADCC EC50, times lower than MDX-060 CHO (FcγRIIIa Val/Phe^158 effector cells) [1] [times lower] | ADCC EC50, times lower than MDX-060 LEX (FcγRIIIa Val/Phe^158 effector cells) [1] [times lower] | ADCC EC50, times lower than MDX-060 CHO (FcγRIIIa Phe/Phe^158 effector cells) [2] [times lower] | Substance
31 | 27 | 0.227 | – | – | – | MDX-060 LEX (antibody)
31 | 15 | 0.18 | – | – | – | MDX-060 CHO (antibody)
– | – | 0.196 | 5 | 3 | 3 | MDX-060 LEX^Opt (antibody)
